Laboratory results: patent US20220009991A1

Target: IGF-1 receptor (UniProt P08069)
Test: cell-based or functional assay

Chain of UniProt P08069 (P08069 31-1367): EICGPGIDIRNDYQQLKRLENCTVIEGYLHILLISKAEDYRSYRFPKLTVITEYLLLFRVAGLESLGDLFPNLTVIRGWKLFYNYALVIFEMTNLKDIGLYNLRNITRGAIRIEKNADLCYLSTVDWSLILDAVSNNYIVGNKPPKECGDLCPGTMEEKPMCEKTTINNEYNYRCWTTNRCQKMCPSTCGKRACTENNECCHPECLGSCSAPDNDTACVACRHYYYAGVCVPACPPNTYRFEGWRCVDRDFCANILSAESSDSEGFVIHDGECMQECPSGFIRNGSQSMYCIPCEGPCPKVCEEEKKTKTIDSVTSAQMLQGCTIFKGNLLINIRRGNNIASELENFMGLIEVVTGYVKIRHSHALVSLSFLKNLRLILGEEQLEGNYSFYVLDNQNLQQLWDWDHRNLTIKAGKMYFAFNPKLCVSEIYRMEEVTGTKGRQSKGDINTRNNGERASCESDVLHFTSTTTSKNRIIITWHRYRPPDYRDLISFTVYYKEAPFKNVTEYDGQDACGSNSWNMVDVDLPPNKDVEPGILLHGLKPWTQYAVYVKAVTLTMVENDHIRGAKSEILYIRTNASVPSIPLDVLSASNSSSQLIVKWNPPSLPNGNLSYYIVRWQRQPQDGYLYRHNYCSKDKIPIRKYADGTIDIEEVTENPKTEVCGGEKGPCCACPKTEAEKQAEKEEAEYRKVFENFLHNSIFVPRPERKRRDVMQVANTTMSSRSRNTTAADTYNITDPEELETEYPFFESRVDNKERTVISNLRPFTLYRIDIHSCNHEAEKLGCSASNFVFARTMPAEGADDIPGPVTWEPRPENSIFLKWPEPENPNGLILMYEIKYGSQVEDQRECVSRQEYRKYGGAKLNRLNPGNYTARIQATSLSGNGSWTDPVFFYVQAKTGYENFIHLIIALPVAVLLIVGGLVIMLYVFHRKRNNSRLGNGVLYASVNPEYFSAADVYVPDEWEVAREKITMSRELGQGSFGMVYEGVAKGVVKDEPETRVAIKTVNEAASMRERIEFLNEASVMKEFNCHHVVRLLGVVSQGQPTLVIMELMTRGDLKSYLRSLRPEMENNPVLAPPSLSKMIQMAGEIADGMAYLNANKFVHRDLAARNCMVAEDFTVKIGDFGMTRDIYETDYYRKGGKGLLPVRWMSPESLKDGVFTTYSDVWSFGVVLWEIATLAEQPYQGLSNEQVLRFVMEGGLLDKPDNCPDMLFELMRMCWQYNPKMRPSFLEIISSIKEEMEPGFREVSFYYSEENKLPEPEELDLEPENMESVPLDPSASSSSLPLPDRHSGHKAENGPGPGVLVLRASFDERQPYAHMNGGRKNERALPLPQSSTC

- pAKT EC50 (concentration needed to achieve the half maximal level of pAKT signaling), healthy iPSC-derived cardiomyocytes, pAKT ELISA: 0.73
Substance: IGF-1 (LR3) (ligand)
